Paper PMC4837482, “The complex binding mode of the peptide hormone H2 relaxin to its receptor RXFP1” (Nature Communications, 2016)
Positions count from the first letter of the chain named.

B1: H2 relaxin (ligand, human)
chain 1: QLYSALANKCCHVGCTKRSLARFC
chain 2: DSWMEEVIKLCGRELVRAQIAICGMSTWS

How the values were obtained:
[1] = biological target: T1, RXFP1 F50A (Homo sapiens, UniProt Q9HBX9, F72A); assay: Eu-H2 relaxin saturation binding assay, transfected HEK293T cells; conditions: F50A RXFP1 versus wild-type RXFP1
T1 construct: expressed in transfected cells; host or cells: HEK293T
T1 sequence (Q9HBX9 23-757 F72A limits assumed): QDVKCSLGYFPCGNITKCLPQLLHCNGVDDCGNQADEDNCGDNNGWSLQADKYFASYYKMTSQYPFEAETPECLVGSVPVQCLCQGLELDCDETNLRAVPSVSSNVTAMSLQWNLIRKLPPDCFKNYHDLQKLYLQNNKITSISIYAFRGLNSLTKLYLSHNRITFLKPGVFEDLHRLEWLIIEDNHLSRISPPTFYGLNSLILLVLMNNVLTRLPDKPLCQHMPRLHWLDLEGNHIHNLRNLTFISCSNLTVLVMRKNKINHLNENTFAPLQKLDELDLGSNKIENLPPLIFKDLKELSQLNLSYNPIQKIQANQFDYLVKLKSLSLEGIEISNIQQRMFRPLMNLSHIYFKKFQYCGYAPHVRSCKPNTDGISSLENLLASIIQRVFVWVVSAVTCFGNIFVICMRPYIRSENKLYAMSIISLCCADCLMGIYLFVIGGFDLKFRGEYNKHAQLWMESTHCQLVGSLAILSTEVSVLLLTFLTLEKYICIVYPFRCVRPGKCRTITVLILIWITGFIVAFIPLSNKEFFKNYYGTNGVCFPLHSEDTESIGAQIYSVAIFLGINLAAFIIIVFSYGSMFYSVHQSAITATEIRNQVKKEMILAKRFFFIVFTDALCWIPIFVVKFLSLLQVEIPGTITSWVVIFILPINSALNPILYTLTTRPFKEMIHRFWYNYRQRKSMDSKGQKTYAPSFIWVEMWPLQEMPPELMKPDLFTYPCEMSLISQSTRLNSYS

[2] = biological target: T2, RXFP1 F50A^ins (Homo sapiens, UniProt Q9HBX9, INS72A); assay: as above; conditions: F50A^Ins-RXFP1 versus wild-type RXFP1
T2 construct: transiently transfected human embryonic kidney (HEK) 293T cells expressing full-length RXFP1 and mutants; expressed in transfected cells; host or cells: HEK293T
T2 sequence (Q9HBX9 with tags, fused parts or gaps INS72A limits assumed): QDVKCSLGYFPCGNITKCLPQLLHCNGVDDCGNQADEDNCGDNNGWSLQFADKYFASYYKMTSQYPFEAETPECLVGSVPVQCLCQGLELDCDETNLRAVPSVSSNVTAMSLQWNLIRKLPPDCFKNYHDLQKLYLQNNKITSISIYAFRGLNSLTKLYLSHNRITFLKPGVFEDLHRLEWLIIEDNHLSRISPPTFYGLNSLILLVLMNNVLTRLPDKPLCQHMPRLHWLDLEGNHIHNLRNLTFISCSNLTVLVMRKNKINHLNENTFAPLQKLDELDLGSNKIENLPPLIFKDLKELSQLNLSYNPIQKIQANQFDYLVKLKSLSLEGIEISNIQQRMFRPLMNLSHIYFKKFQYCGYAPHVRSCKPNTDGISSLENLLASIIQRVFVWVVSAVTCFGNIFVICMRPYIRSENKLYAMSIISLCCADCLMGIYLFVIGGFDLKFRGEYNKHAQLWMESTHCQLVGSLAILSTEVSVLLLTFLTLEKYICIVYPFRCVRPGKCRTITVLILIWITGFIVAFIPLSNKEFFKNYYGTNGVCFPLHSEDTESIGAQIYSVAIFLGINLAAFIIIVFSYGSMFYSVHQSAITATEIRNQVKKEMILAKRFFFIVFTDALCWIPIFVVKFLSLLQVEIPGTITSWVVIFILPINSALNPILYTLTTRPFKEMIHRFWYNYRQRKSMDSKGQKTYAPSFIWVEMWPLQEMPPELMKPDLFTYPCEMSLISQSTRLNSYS

[3] = biological target: LRR domain of RXFP1; assay: Affinity for the LRR domain predicted from the titration data; parameters: species or system human; conditions: predicted from the RXFP1(1–72) titration data
[4] = biological target: T3, RXFP1 G45A/W46A, full length (human); assay: cell-based or functional assay
T3 chain: T1 sequence (Q9HBX9 23-757 F72A limits assumed) with G45A, W46A, A50F

[5] = biological target: T4, RXFP1_((1–72)) (human); assay: NMR titration; 2D 1H-15N HSQC; 50 μM 15N-labelled RXFP1(1–72) titrated with 25-500 μM H2 relaxin; 50 mM imidazole, 10 mM CaCl2, pH 6.8, 25 °C; fit of the shifts of Asp51, Ala55 and Thr61
T4 sequence (Q9HBX9 1-72, looked up): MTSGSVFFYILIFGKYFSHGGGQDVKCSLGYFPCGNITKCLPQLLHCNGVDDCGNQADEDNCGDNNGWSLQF

Row | Molecule | loss in H2 relaxin binding [1] | loss of binding to H2 relaxin [2] | Kd [3] | H2 relaxin-induced cAMP response (pCRE β-galactosidase reporter, HEK293T), pEC50 [4] | Kd [5]
1 | H2 relaxin: two-chain 6-kDa peptide hormone structurally related to insulin; recombinant human gene-2 H2 relaxin provided by Corthera | tenfold | 25 fold | ~1 µM |  | 
2 | B1 |  |  |  | < 6 pEC50 | 200 µM
